Biological target: T1, Bob1 (gene POU2AF1) peptide on HLA-B*35:01 (human)
T1 peptide: APAPTAVVL
Experiment: multimer staining

B1: TCR 1C5.6 (TCR, V domains shown)
Valpha: AQSVTQLDSQVPVFEEAPVELRCNYSSSVSVYLFWYVQYPNQGLQLLLKYLSGSTLVESINGFEAEFNKSQTSFHLRKPSVHISDTAEYFCAVKVSNAGGTSYGKLTFGQGTILTVHP
Vbeta: DGGITQSPKYLFRKEGQNVTLSCEQNLNHDAMYWYRQDPGQGLRLIYYSQIVNDFQKGDIAEGYSVSREKKESFPLTVTSAQKNPTAFYLCASSIAQGADTQYFGPGTRLTVL
B1: no recognition.
